The values that follow come from patent US20140030274A1 (ALPHABETA, published 2014).

In data set [1] the target is Aβ(M1-40) (human). The data set can be described thus: cell-based or functional assay.
The target of another data set is Aβ(M1-42) (human). The data set can be described thus: cell-based or functional assay.
In data set [2] the target is T1, Aβ(M1-40) (human).
T1 construct: Expressed in E. coli from a synthetic gene, and the monomer was isolated by gel filtration; also called Aβ40; human Aβ1-40 peptide
T1 sequence (peptide, as listed by the source): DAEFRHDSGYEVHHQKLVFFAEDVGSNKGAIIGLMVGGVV
The data set can be described thus: estimate from peak shapes in gel filtration (intermediate exchange on the gel filtration time scale). How it is done: Samples were injected from a 1 mL loop and chromatograms recorded by monitoring the absorbance at 280 nm. To monitor protein interactions, mixtures of Aβ and BRICHOS domains were injected directly after mixing or after 2 or 20 hours incubation at 37° C. in 20 mM Na-phosphate, 200 μM EDTA, 0.02% NaN₃ at pH 7.4 or pH 8.0. Fractions (0.3-0.7 ml) were collected during the chromatogram, lyophilized and analyzed by SDS PAGE in a 10-20% gradient gel.
The interaction between the BRICHOS proteins and Aβ was studied using gel filtration. Samples of 8 μM Aβ40 and 0.8 μM proSP-C BRICHOS, or 8 μM Aβ40 and 0.8 μM Bri2 BRICHOS, were incubated for 20 hours at 37° C., followed by gel filtration on a Superdex75 column, and SDS PAGE analysis of collected fractions.
The 20 h time point was chosen for investigating potential interactions between the BRICHOS protein and Aβ, because at this time point Aβ alone would have fibrillated and reached the equilibrium plateau, whereas samples containing 0.1 molar equivalent of proSP-C or Bri2 BRICHOS are still in the lag phase (c.f. FIG. 9). The data in FIG. 11 show clearly that at this time point almost all of Aβ40 is monomeric, while a minor fraction elutes together with proSP-C BRICHOS in fractions 2-6. Similar results are observed for 8 μM Aβ40 and 0.8 μM Bri2 BRICHOS (FIG. 12B). […]

A further data set addresses T2, KKAAAAAAAKK
T2 construct: Non-substrate peptide; also called A7; KKA7KK
T2 peptide: KKAAAAAAAKK
In words: HDX-MS. As to the method: (§1) Deuterated buffers were prepared by three rounds of freeze-drying of the 1 M stock Tris buffer, pH 8, and reconstitution in 99.9% D₂O (Cambridge Isotopes, Andover, Mass.) to a final Tris concentration of 20 mM. To start the incubation at 22° C., CTC (CTproSP-C) stock solution with a concentration of 0.9 mM was diluted in deuterated Tris buffer to a final deuterium content of 92.5%. For CTC/peptide and proSP-C BRICHOS/peptide interaction studies, KKV₇KK, KKV₅KK, or KKA₇KK were pre-incubated with either Tris buffer or proteins, for 10 min at 22° C., and subsequently diluted in deuterated Tris buffer. Final concentrations were 30 μM CTC or proSP-C BRICHOS and 40 μM peptide. The deuterium content was 92.5%. Aliquots of 20 μl were collected in triplicates from three separate incubations after 1, 5, 10, 30, and 60 min. Fully deuterated protein was prepared by freeze-drying a sample of CTC, followed by resuspension in 99.9% D₂O and incubation for 4 h at 50° C. Deuterium exchange was quenched by transferring aliquots to pre-chilled Eppendorf tubes containing 0.5 μL 5% trifluoroacetic acid (TFA) (Merck, Darmstadt, Germany), vortexing, and freezing in liquid nitrogen. Samples were kept in liquid nitrogen until analyzed.
(§2) Aliquots of deuterated CTC were thawed and injected into an HPLC system using a pre-chilled Hamilton syringe. The system was submersed in an ice bath during analysis. […]

The target in the next data set is T3, KKVVVVVVVKK
T3 construct: Substrate peptide; also called V7; KKV7KK
T3 peptide: KKVVVVVVVKK
In words: HDX-MS, 30 µM CTC and 40 µM peptide. As to the method: as §1, §2

The next data set deals with T4, KKVVVVVKK
T4 construct: Substrate peptide; also called V5; KKV5KK
T4 peptide: KKVVVVVKK
In words: HDX-MS, 30 µM CTC and 40 µM peptide. As to the method: as §1, §2

Data set [3] deals with the molecule itself. In words: crystal structure, subunit to subunit in the homotrimer. As to the method:
Crystals suitable for structure determination were obtained within weeks by means of in situ proteolysis with trypsin. […] The structure presented herein was derived from crystals of seleno-methionylated protein, obtained using the sitting-drop method at 293 K and 277 K, in various concentrations ranging between 0.3-0.7 mM. A single crystal belonging to space group C2 (a=132.05 Å, b=39.33 Å, c=114.76 Å, β=99.6°) was grown from 0.1 M Bis-Tris pH 6.5 and 20% (w/v) PEG MME 5K. The crystal was soaked in 30% (w/v) PEG 400, flash-frozen in liquid nitrogen and used for data collection.
Data to 2.1 Å were collected at the European Synchrotron Radiation Facility, France, using an ADSC Q315 detector on the ID23eh1 beam line. All data were processed in MOSFLM12 and scaled in SCALA13. Data are essentially 100% complete to 2.3 Å Bragg spacing, then drop off rapidly and are only ˜60% complete in the outer resolution shell to 2.1 Å.

Aβ(M1-42) (human), sequence (peptide, as listed by the source): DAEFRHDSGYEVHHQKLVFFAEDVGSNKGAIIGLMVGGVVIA

B1: proSP-C BRICHOS (recombinant human, His59 to Ile197 of proSP-C, Examples 4-8) (other)
chain: HMSQKHTEMVLEMSIGAPEAQQRLALSEHLVTTATFSIGSTGLVVYDYQQLLIAYKPAPGTCCYIMKIAPESIPSLEALNRKVHNFQMECSLQAKPAVPTSKLGQAEGRDAGSAPSGGDPAFLGMAVNTLCGEVPLYYI
notes: Expressed in E. coli, with the thioredoxin and His6-tag removed by thrombin; Gel filtration indicates a trimer at 0 h and monomers eluting with Aβ after 20 h; also called recombinant human proSP-C BRICHOS; BRICHOS protein
As for B1, in the data set with Aβ(M1-40) [1], the “10-fold increase in lag time of Aβ40 aggregation (ThT fluorescence)” value is about 0.03 equivalents, the “molar ratio above which the lag time of Aβ40 aggregation exceeds one week” value was 0.06 molar ratio and the “ratio above which Aβ40 aggregation does not occur within one week” value was 10 Aβ40 molecules per 1 proSP-C BRICHOS. Also, the “ten-fold increase in lag time of Aβ42 aggregation (ThT fluorescence)” value with Aβ(M1-42) was about 0.6 molar equivalents. Also, in the data set with Aβ(M1-40) [2], the koff is 0.001 to 0.01 s⁻¹.

B2: CTproSP-C, the C-terminal domain of lung surfactant protein C precursor (residues 59-197 of human proSP-C) (other)
chain: HMSQKHTEMVLEMSIGAPEAQQRLALSEHLVTTATFSIGSTGLVVYDYQQLLIAYKPAPGTCCYIMKIAPESIPSLEALNRKVHNFQMECSLQAKPAVPTSKLGQAEGRDAGSAPSGGDPAFLGMAVNTLCGEVPLYYI
notes: also called CTC; recombinant CTC
Take B2: the binding result with KKAAAAAAAKK was “no binding (tested: 30 µM CTC and 40 µM peptide)”; with KKVVVVVVVKK, “binds”; with KKVVVVVKK it was “binds”.

B3: crystallised proSP-C BRICHOS trimer (seleno-methionylated CTC after in situ proteolysis with trypsin, residues 82-160 and 168-197 of proSP-C) (other)
chain 1: LALSEHLVTTATFSIGSTGLVVYDYQQLLIAYKPAPGTCCYIMKIAPESIPSLEALNRKVHNFQMECSLQAKPAVPTSK
chain 2: DAGSAPSGGDPAFLGMAVNTLCGEVPLYYI
modifications: seleno-methionylated protein; seleno-methionylated protein; disulfide bridge Cys121-Cys189 to the second chain
notes: There are two trimers per asymmetric unit, and data extend to 2.1 Å; Residues about 149-180 are not modelled; also called crystallized protein
In the case of B3, the binding result in data set [3] is given as “binds”.

B4: Bri2 BRICHOS (recombinant human Bri2 BRICHOS construct as described in Peng et al. 2010) (other)
chain: GIKYIKDDVILNEPSADAPAALYQTIEENIKIFEEEEVEFISVPVPEFADSDPANIVHDFNKKLTAYLDLNLDKCYVIPLNTSIVMPPRNLLELLINIKAGTYLPQSYLIHEHMVITDRIENIDHLGFFIYRLCHDKETYKLQRRET
notes: also called Bri2 BRICHOS domain; BRICHOS protein
As for B4, in the data set with Aβ(M1-40) [1], the “10-fold increase in lag time of Aβ40 aggregation (ThT fluorescence)” value was about 0.01 equivalents and the “molar ratio above which the lag time of Aβ40 aggregation exceeds one week” value worked out at 0.025 molar ratio. Besides, in the data set with Aβ(M1-42), the “ten-fold increase in lag time of Aβ42 aggregation (ThT fluorescence)” value was about 0.6 molar equivalents. The koff with Aβ(M1-40) [2] is 0.001 to 0.01 s⁻¹.

In general, koff refers to the first-order rate constant of dissociation.
